According to patent US20240317834A1, “COMPOSITIONS AND METHODS FOR NEUROLOGICAL DISEASES” (CODA BIOTHERAPEUTICS, INC., priority 2020, published 2024):

System: Lenti-X 293T cells
Experiment: YFP fluorescence quenching anion reporter plate reader assay of engineered receptors stimulated with acetylcholine or a non-native ligand
Format: cell-based
Details: for percent quench of YFP fluorescence, 10 uM ach: acetylcholine 10 uM; for percent quench of YFP fluorescence, 100 uM ach: acetylcholine 100 uM; for percent quench of YFP fluorescence, 1 mM ach: acetylcholine 1 mM; for percent quench of YFP fluorescence, 3 mM ach: acetylcholine 3 mM
Description: To screen these mutant LGICs for those having novel response profiles to ligands, an anion reporter assay was developed to assess the function of the LGICs in a high throughput format. In this assay, cells expressing a YFP reporter whose fluorescence is quenched in the presence of anion are transfected with DNA encoding the channel of interest. Upon exposure to ligand, channels that are activated will flux anion, resulting in a dose-dependent quench of the YFP that can be detected on a plate reader. The greater the quench signal (i.e., the more positive the value), the higher the ligand activity on the receptor is.
Lenti-X 293T cells (LX293T, Clontech) were maintained in DMEM containing 10% FBS and 1% penicillin/streptomycin (Invitrogen). […] Two days before assay, cells were split at a density of 20,000 cells/well in a 96-well tissue culture plate coated with poly-d lysine (Thermo Scientific). The next day, the cells were transiently transfected with 0.1 μg of DNA per well using standard Fugene protocol (Promega). On the day of assay, cells were washed 2 times in 1× extracellular solution (1×ECS: 140 mM NaCl, 5 mM KCl, 1 mM MgCl2, 2 mM CaCl2), 10 mM HEPES, 10 mM glucose, pH 7.2, mOsms 300). After the last wash, 100 μL of 1×ECS was added to the wells and the plate was incubated at 37° C. for 30 min. While incubating the plate, the drugs were diluted to a 2× concentration in 1×ECS-NaI (same components as 1×ECS except the 140 mM NaCl was replaced by 140 mM NaI). The plates were then read on a Flexstation3 (Molecular Devices). Each well, 8 wells at a time, of the plate is read for 2 min using a Flexstation3 (Molecular Devices) as follows: 1) a baseline YFP fluorescence is read for 17 sec, 2) 100 μL of ligand is added, and 3) the changes in YFP fluorescence are then measured every 1.3 sec for 1 minute and 43 seconds. The percent quench is calculated from the average fluorescence of the last 10 seconds of the read divided by the baseline average of the first 15 seconds prior to the ligand addition.
FIGS. 1A-1J provide heat maps of the percent quench of YFP fluorescence following stimulation by various doses of either acetylcholine or the non-native ligand as indicated in the Figures. CODA71 (SEQ ID NO: 33) was used as a control, and CODA75 (SEQ ID NO: 29, a non-responding chimeric engineered receptor) was used as the negative control. Quenching of the fluorescence signal, as indicated by blue shaded cells, indicate the level of engineered receptor activation by the non-native ligand at that concentration.

B1: CODA236: engineered chimeric LGIC receptor, R101F in SEQ ID NO: 33 (protein)
chain: MRCSPGGVWLALAASLLHVSLQGEFQRKLYKELVKNYNPLERPVANDSQPLTVYFSLSLLQIMDVDEKNQVLTTNIWLQMSWTDHYLQWNVSEYPGVKTVFFPDGQIWKPDILLYNSADERFDATFHTNVLVNSSGHCQYLPPGIFKSSCPMDLKNFPMDVQTCKLKFGSWSYGGWSLDLQMQEADISGYIPNGEWDLVGIPGKRSERFYECCKEPYPDVTFTVTMRRRMGYYLIQMYIPSLLIVILSWISFWINMDAAPARVGLGITTVLTMTTQSSGSRASLPKVSYVKAIDIWMAVCLLFVFSALLEYAAVNFVSRQHKELLRFRRKRRHHKSPMLNLFQEDEAGEGRFNFSAYGMGPACLQAKDGISVKGANNSNTTNPPPAPSKSPEEMRKLFIQRAKKIDKISRIGFPMAFLIFNMFYWIIYKIVRREDVHNQ
modifications: synthetic sequence of chimeric LGIC
1 nM CNL001, first column
  YFP fluorescence quenching using CNL001: 9.048%
1 nM CNL001, second column
  YFP fluorescence quenching using CNL001: 26.601%
3 nM brd
  YFP fluorescence quenching using TC-5619/Bradanicline: 49.33%
3 nM var, first column
  YFP fluorescence quenching using Varenicline: 19.949
3 nM var, second column
  YFP fluorescence quenching using Varenicline: 22.334
10 nM CNL001, first column
  YFP fluorescence quenching using CNL001: 71.533%
10 nM CNL001, second column
  YFP fluorescence quenching using CNL001: 72.948%
30 nM brd
  YFP fluorescence quenching using TC-5619/Bradanicline: 77.38%
30 nM fac
  YFP fluorescence quenching using Facinicline: −28.54
30 nM var, first column
  YFP fluorescence quenching using Varenicline: 15.764
30 nM var, second column
  YFP fluorescence quenching using Varenicline: 16.213
50 nM CNL001, first column
  YFP fluorescence quenching using CNL001: 75.895%
50 nM CNL001, second column
  YFP fluorescence quenching using CNL001: 74.238%
50 nM abt
  YFP fluorescence quenching using ABT-126: −18.69%
100 nM CNL001, first column
  YFP fluorescence quenching using CNL001: 76%
100 nM CNL001, second column
  YFP fluorescence quenching using CNL001: 75.861%
100 nM CNL002
  YFP fluorescence quenching using CNL002: −9.56%
100 nM abt
  YFP fluorescence quenching using ABT-126: −23.01%
100 nM azd0328
  YFP fluorescence quenching using AZD-0328: −9.78%
300 nM abt
  YFP fluorescence quenching using ABT-126: −20.92%
300 nM azd0328
  YFP fluorescence quenching using AZD-0328: 49.64%
300 nM brd
  YFP fluorescence quenching using TC-5619/Bradanicline: 77.51%
300 nM fac
  YFP fluorescence quenching using Facinicline: 72.98
300 nM var, first column
  YFP fluorescence quenching using Varenicline: 23.135
300 nM var, second column
  YFP fluorescence quenching using Varenicline: 22.987
500 nM var, first column
  YFP fluorescence quenching using Varenicline: 35.048
500 nM var, second column
  YFP fluorescence quenching using Varenicline: 34.188
1 uM CNL001, first column
  YFP fluorescence quenching using CNL001: 76.367%
1 uM CNL001, second column
  YFP fluorescence quenching using CNL001: 76.162%
1 uM CNL002
  YFP fluorescence quenching using CNL002: 56.9%
1 uM abt
  YFP fluorescence quenching using ABT-126: 4.99%
1 uM tc6987
  YFP fluorescence quenching using TC-6987: 45.34
1 uM var, first column
  YFP fluorescence quenching using Varenicline: 71.031
1 uM var, second column
  YFP fluorescence quenching using Varenicline: 71.005
10 uM tc6987
  YFP fluorescence quenching using TC-6987: 70.04
30 uM CNL002
  YFP fluorescence quenching using CNL002: 70.28%
30 uM azd0328
  YFP fluorescence quenching using AZD-0328: 81.14%
30 uM fac
  YFP fluorescence quenching using Facinicline: 87.6
500 uM tc6987
  YFP fluorescence quenching using TC-6987: 75.86
  percent quench of YFP fluorescence, 10 uM ach: −18.24%
  percent quench of YFP fluorescence, 100 uM ach: 60%
  percent quench of YFP fluorescence, 1 mM ach: 66.07%
  percent quench of YFP fluorescence, 3 mM ach: 71.38%

B2: CODA237: engineered chimeric LGIC receptor, R101M in SEQ ID NO: 33 (protein)
chain: MRCSPGGVWLALAASLLHVSLQGEFQRKLYKELVKNYNPLERPVANDSQPLTVYFSLSLLQIMDVDEKNQVLTTNIWLQMSWTDHYLQWNVSEYPGVKTVMFPDGQIWKPDILLYNSADERFDATFHTNVLVNSSGHCQYLPPGIFKSSCPMDLKNFPMDVQTCKLKFGSWSYGGWSLDLQMQEADISGYIPNGEWDLVGIPGKRSERFYECCKEPYPDVTFTVTMRRRMGYYLIQMYIPSLLIVILSWISFWINMDAAPARVGLGITTVLTMTTQSSGSRASLPKVSYVKAIDIWMAVCLLFVFSALLEYAAVNFVSRQHKELLRFRRKRRHHKSPMLNLFQEDEAGEGRFNFSAYGMGPACLQAKDGISVKGANNSNTTNPPPAPSKSPEEMRKLFIQRAKKIDKISRIGFPMAFLIFNMFYWIIYKIVRREDVHNQ
modifications: synthetic sequence of chimeric LGIC
1 nM CNL001, first column
  YFP fluorescence quenching using CNL001: −2.114%
1 nM CNL001, second column
  YFP fluorescence quenching using CNL001: −5.079%
3 nM brd
  YFP fluorescence quenching using TC-5619/Bradanicline: −14.87%
3 nM var, first column
  YFP fluorescence quenching using Varenicline: 18.429
3 nM var, second column
  YFP fluorescence quenching using Varenicline: 16.83
10 nM CNL001, first column
  YFP fluorescence quenching using CNL001: 15.096%
10 nM CNL001, second column
  YFP fluorescence quenching using CNL001: 50.554%
30 nM brd
  YFP fluorescence quenching using TC-5619/Bradanicline: 69.93%
30 nM fac
  YFP fluorescence quenching using Facinicline: −24.14
30 nM var, first column
  YFP fluorescence quenching using Varenicline: 23.07
30 nM var, second column
  YFP fluorescence quenching using Varenicline: 15.868
50 nM CNL001, first column
  YFP fluorescence quenching using CNL001: 66.585%
50 nM CNL001, second column
  YFP fluorescence quenching using CNL001: 74.462%
50 nM abt
  YFP fluorescence quenching using ABT-126: −24.34%
100 nM CNL001, first column
  YFP fluorescence quenching using CNL001: 78%
100 nM CNL001, second column
  YFP fluorescence quenching using CNL001: 77.411%
100 nM CNL002
  YFP fluorescence quenching using CNL002: −8.68%
100 nM abt
  YFP fluorescence quenching using ABT-126: −20.22%
100 nM azd0328
  YFP fluorescence quenching using AZD-0328: −17.84%
300 nM abt
  YFP fluorescence quenching using ABT-126: −20.57%
300 nM azd0328
  YFP fluorescence quenching using AZD-0328: −11.98%
300 nM brd
  YFP fluorescence quenching using TC-5619/Bradanicline: 76.57%
300 nM fac
  YFP fluorescence quenching using Facinicline: −14.38
300 nM var, first column
  YFP fluorescence quenching using Varenicline: 18.819
300 nM var, second column
  YFP fluorescence quenching using Varenicline: 19.155
500 nM var, first column
  YFP fluorescence quenching using Varenicline: 19.117
500 nM var, second column
  YFP fluorescence quenching using Varenicline: 22.593
1 uM CNL001, first column
  YFP fluorescence quenching using CNL001: 79.06%
1 uM CNL001, second column
  YFP fluorescence quenching using CNL001: 79.162%
1 uM CNL002
  YFP fluorescence quenching using CNL002: −2.24%
1 uM abt
  YFP fluorescence quenching using ABT-126: −19.55%
1 uM tc6987
  YFP fluorescence quenching using TC-6987: −21.62
1 uM var, first column
  YFP fluorescence quenching using Varenicline: 24.525
1 uM var, second column
  YFP fluorescence quenching using Varenicline: 23.383
10 uM tc6987
  YFP fluorescence quenching using TC-6987: 21.52
30 uM CNL002
  YFP fluorescence quenching using CNL002: 66.99%
30 uM azd0328
  YFP fluorescence quenching using AZD-0328: 81.2%
30 uM fac
  YFP fluorescence quenching using Facinicline: 88.78
500 uM tc6987
  YFP fluorescence quenching using TC-6987: 60.33
  percent quench of YFP fluorescence, 10 uM ach: −16.79%
  percent quench of YFP fluorescence, 100 uM ach: −18.63%
  percent quench of YFP fluorescence, 1 mM ach: 46.28%
  percent quench of YFP fluorescence, 3 mM ach: 69.31%
